In FireProtDB (doi:10.1007/s00792-015-0748-z):

B1: L-asparaginase, Q8TZE8 (parent)
chain: MKILLIGMGGTIASVKGENGYEASLSVKEVLDIAGIKDCEDCDFLDLKNVDSTLIQPEDWVDLAETLYKNVKKYDGIIVTHGTDTLAYTSSMISFMLRNPPIPIVFTGSMIPATEENSDAPLNLQTAIKFATSGIRGVYVAFNGKVMLGVRTSKVRTMSRDAFESINYPIIAELRGEDLVVNFIPKFNNGEVTLDLRHDPKVLVIKLIPGLSGDIFRAAVELGYRGIVIEGYGAGGIPYRGSDLLQTIEELSKEIPIVMTTQAMYDGVDLTRYKVGRLALRAGVIPAGDMTKEATVTKLMWILGHTNNVEEIKVLMRKNLVGELRD

Variants of: B1
Settings: Pyrococcus furiosus (strain ATCC 43587 / DSM 3638 / JCM 8422 / Vc1); pH 8; 60 °C; GdnHCl; Fluorescence; Tris; NaCl; transition: 2; reversible: yes; structure 4Q0M; whole UniProt chain shown

Variant: MKILLIGMGGTIASVKGENGYEASLSVKEVLDIAGIKDCEDCDFLDLKNVDSTLIQPEDWVDLAETLYKNVKKYDGIIVTHGTDTLAYTSSMISFMLRNPPIPIVFTGSMIPATEENSDAPLNLQTAIKFATSGIRGVYVAFNGKVMLGVRTSKVRTMSRDAFESINYPIIAELRGEDLVVNFIPKFNNGEVTLDLRHDPKVLVIKLIPGLSGDIFRAAVELGYRGIVIEGYGAGGIPYRGSDLLQTIEELSKEIPIVMTTQAMYDGVDLTRYKVGRLALRAGVIPAGDMTKEATVTKLMFILGHTNNVEEIKVLMRKNLVGELRD [W301F]
- ddG of mutation (higher = less stable): -3.98 kcal/mol
- denaturant m value: 6.21 kcal/mol/M
- denaturant midpoint (higher = more stable): 3.18 M
- unfolding free energy: 19.7 kcal/mol

Variant: MKILLIGMGGTIASVKGENGYEASLSVKEVLDIAGIKDCEDCDFLDLKNVDSTLIQPEDFVDLAETLYKNVKKYDGIIVTHGTDTLAYTSSMISFMLRNPPIPIVFTGSMIPATEENSDAPLNLQTAIKFATSGIRGVYVAFNGKVMLGVRTSKVRTMSRDAFESINYPIIAELRGEDLVVNFIPKFNNGEVTLDLRHDPKVLVIKLIPGLSGDIFRAAVELGYRGIVIEGYGAGGIPYRGSDLLQTIEELSKEIPIVMTTQAMYDGVDLTRYKVGRLALRAGVIPAGDMTKEATVTKLMWILGHTNNVEEIKVLMRKNLVGELRD [W60F]
- denaturant m value: 4.23 kcal/mol/M
- denaturant midpoint (higher = more stable): 2.82 M
- unfolding free energy: 11.9 kcal/mol
